From patent US20260049138A1 (Chugai, published 2026)
Positions count from the first letter of the chain named. In names and notes the source's numbering stands.

B1: GLS3000 F55G one-arm antibody (antibody, human IgG1, kappa, L234A L235A, N297A, name in Kabat numbering)
heavy: QVQLVESGGGVVQPGRSLRLSCAASGFTFSNAWMHWVRQAPGKGLEWVAQIKAKSNNYATYYAESVKGRFTISRDDSKNSLYLQMNSLKTEDTAVYYCRYVHYGAYYGVDAWGQGTTVTVSSASTKGPSVFPLAPSSKSTSGGTAALGCLVKDYFPEPVTVSWNSGALTSGVHTFPAVLQSSGLYSLSSVVTVPSSSLGTQTYICNVNHKPSNTKVDKKVEPKSCDKTHTCPPCPAPEAAGGPSVFLFPPKPKDTLMISRTPEVTCVVVDVSHEDPEVKFNWYVDGVEVHNAKTKPREEQYASTYRVVSVLTVLHQDWLNGKEYKCKVSNKALPAPIEKTISKAKGQPREPQVYTLPPSRCELTKNQVSLSCAVKGFYPSDIAVEWESNGQPENNYKTTPPVLDSDGSFFLVSKLTVDKSRWQQGNVFSCSVMHEALHNHYTQKSLSLSPDYKDDDDK
chain: EPKSSDKTHTCPPCPAPELLGGPSVFLFPPKPKDTLMISRTPEVTCVVVDVSHEDPEVKFNWYVDGVEVHNAKTKPREEQYNSTYRVVSVLTVLHQDWLNGKEYKCKVSNKALPAPIEKTISKAKGQPREPQVCTLPPSRDELTKNQVSLWCLVKGFYPSDIAVEWESNGQPENNYKTTPPVLDSDGSFFLYSKLTVDKSRWQQGNVFSCSVMHEALHNRYTQKSLSLSP
light: DIVMTQSPLSLPVTPGEPASISCRSSQSLVHSNRNTYLHWYQQKPGQAPRLLIYKVSNRGSGVPDRFSGSGSGTDFTLKISRVEAEDVGVYYCGQGTQVPYTFGQGTKLEIKRTVAAPSVFIFPPSDEQLKSGTASVVCLLNNFYPREAKVQWKVDNALQSGNSQESVTEQDSKDSTYSLSSTLTLSKADYEKHKVYACEVTHQGLSSPVTKSFNRGEC
B2: GLS3000 G89T one-arm antibody (antibody, human IgG1, kappa, L234A L235A, N297A, name in Kabat numbering)
heavy: B1 heavy
chain: B1 chain
light: B1 light with G60F, G94T
B3: GLS3000 F55T one-arm antibody (antibody, human IgG1, kappa, L234A L235A, N297A, name in Kabat numbering)
heavy: B1 heavy
chain: B1 chain
light: B1 light with G60T
B4: GLS3000 F55K one-arm antibody (antibody, human IgG1, kappa, L234A L235A, N297A, name in Kabat numbering)
heavy: B1 heavy
chain: B1 chain
light: B1 light with G60K
B5: GLS3000 G89D one-arm antibody (antibody, human IgG1, kappa, L234A L235A, N297A, name in Kabat numbering)
heavy: B1 heavy
chain: B1 chain
light: B1 light with G60F, G94D
B6: GLS3000 G89Q one-arm antibody (antibody, human IgG1, kappa, L234A L235A, N297A, name in Kabat numbering)
heavy: B1 heavy
chain: B1 chain
light: B1 light with G60F, G94Q
B7: GLS3000 G89Y one-arm antibody (antibody, human IgG1, kappa, L234A L235A, N297A, name in Kabat numbering)
heavy: B1 heavy
chain: B1 chain
light: B1 light with G60F, G94Y
B8: GLS3000 G89F one-arm antibody (antibody, human IgG1, kappa, L234A L235A, N297A, name in Kabat numbering)
heavy: B1 heavy
chain: B1 chain
light: B1 light with G60F, G94F
B9: GLS3000 F55L one-arm antibody (antibody, human IgG1, kappa, L234A L235A, N297A, name in Kabat numbering)
heavy: B1 heavy
chain: B1 chain
light: B1 light with G60L
B10: GLS3000 G89W one-arm antibody (antibody, human IgG1, kappa, L234A L235A, N297A, name in Kabat numbering)
heavy: B1 heavy
chain: B1 chain
light: B1 light with G60F, G94W
B11: GLS3000 G89M one-arm antibody (antibody, human IgG1, kappa, L234A L235A, N297A, name in Kabat numbering)
heavy: B1 heavy
chain: B1 chain
light: B1 light with G60F, G94M
B12: GLS3000 F55Y one-arm antibody (antibody, human IgG1, kappa, L234A L235A, N297A, name in Kabat numbering)
heavy: B1 heavy
chain: B1 chain
light: B1 light with G60Y
B13: GLS3000 F55V one-arm antibody (antibody, human IgG1, kappa, L234A L235A, N297A, name in Kabat numbering)
heavy: B1 heavy
chain: B1 chain
light: B1 light with G60V
B14: GLS3000 F55I one-arm antibody (antibody, human IgG1, kappa, L234A L235A, N297A, name in Kabat numbering)
heavy: B1 heavy
chain: B1 chain
light: B1 light with G60I
B15: GLS3000 G89K one-arm antibody (antibody, human IgG1, kappa, L234A L235A, N297A, name in Kabat numbering)
heavy: B1 heavy
chain: B1 chain
light: B1 light with G60F, G94K
B16: GLS3000 G89V one-arm antibody (antibody, human IgG1, kappa, L234A L235A, N297A, name in Kabat numbering)
heavy: B1 heavy
chain: B1 chain
light: B1 light with G60F, G94V
B17: GLS3000 G89N one-arm antibody (antibody, human IgG1, kappa, L234A L235A, N297A, name in Kabat numbering)
heavy: B1 heavy
chain: B1 chain
light: B1 light with G60F, G94N
B18: GLS3000 F55Q one-arm antibody (antibody, human IgG1, kappa, L234A L235A, N297A, name in Kabat numbering)
heavy: B1 heavy
chain: B1 chain
light: B1 light with G60Q
B19: GLS3000 G89I one-arm antibody (antibody, human IgG1, kappa, L234A L235A, N297A, name in Kabat numbering)
heavy: B1 heavy
chain: B1 chain
light: B1 light with G60F, G94I
B20: GLS3000 F55N one-arm antibody (antibody, human IgG1, kappa, L234A L235A, N297A, name in Kabat numbering)
heavy: B1 heavy
chain: B1 chain
light: B1 light with G60N
B21: GLS3000 G89L one-arm antibody (antibody, human IgG1, kappa, L234A L235A, N297A, name in Kabat numbering)
heavy: B1 heavy
chain: B1 chain
light: B1 light with G60F, G94L
B22: GLS3000 F55W one-arm antibody (antibody, human IgG1, kappa, L234A L235A, N297A, name in Kabat numbering)
heavy: B1 heavy
chain: B1 chain
light: B1 light with G60W
B23: GLS3000 F55S one-arm antibody (antibody, human IgG1, kappa, L234A L235A, N297A, name in Kabat numbering)
heavy: B1 heavy
chain: B1 chain
light: B1 light with G60S
B24: GLS3000 G89R one-arm antibody (antibody, human IgG1, kappa, L234A L235A, N297A, name in Kabat numbering)
heavy: B1 heavy
chain: B1 chain
light: B1 light with G60F, G94R
B25: GLS3000 F55H one-arm antibody (antibody, human IgG1, kappa, L234A L235A, N297A, name in Kabat numbering)
heavy: B1 heavy
chain: B1 chain
light: B1 light with G60H
B26: GLS3000 G91D one-arm antibody (antibody, human IgG1, kappa, L234A L235A, N297A, name in Kabat numbering)
heavy: B1 heavy
chain: B1 chain
light: B1 light with G60F, G96D
B27: GLS3000 F55R one-arm antibody (antibody, human IgG1, kappa, L234A L235A, N297A, name in Kabat numbering)
heavy: B1 heavy
chain: B1 chain
light: B1 light with G60R
B28: GLS3000 F55M one-arm antibody (antibody, human IgG1, kappa, L234A L235A, N297A, name in Kabat numbering)
heavy: B1 heavy
chain: B1 chain
light: B1 light with G60M
B29: GLS3000 G91A one-arm antibody (antibody, human IgG1, kappa, L234A L235A, N297A, name in Kabat numbering)
heavy: B1 heavy
chain: B1 chain
light: B1 light with G60F, G96A
B30: GLS3000 G89P one-arm antibody (antibody, human IgG1, kappa, L234A L235A, N297A, name in Kabat numbering)
heavy: B1 heavy
chain: B1 chain
light: B1 light with G60F, G94P
B31: GLS3000 G89H one-arm antibody (antibody, human IgG1, kappa, L234A L235A, N297A, name in Kabat numbering)
heavy: B1 heavy
chain: B1 chain
light: B1 light with G60F, G94H
B32: GLS3000 G89A one-arm antibody (antibody, human IgG1, kappa, L234A L235A, N297A, name in Kabat numbering)
heavy: B1 heavy
chain: B1 chain
light: B1 light with G60F, G94A
B33: GLS3000 F55P one-arm antibody (antibody, human IgG1, kappa, L234A L235A, N297A, name in Kabat numbering)
heavy: B1 heavy
chain: B1 chain
light: B1 light with G60P
B34: GLS3000 G89E one-arm antibody (antibody, human IgG1, kappa, L234A L235A, N297A, name in Kabat numbering)
heavy: B1 heavy
chain: B1 chain
light: B1 light with G60F, G94E

target: T1, CD3ε homodimer protein (human, UniProt P07766 23-126, limits assumed); assay: SPR Biacore T200, CD3ε homodimer on chip;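 note: Light-chain single-residue variant antibodies injected over amine-coupled CD3ε homodimer on a CM4 chip at 25 °C, bound amount divided by that of the GLS3000-containing antibody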
T1 construct: also called CD3 (CD3ε)
T1 sequence (P07766 23-126 limits assumed): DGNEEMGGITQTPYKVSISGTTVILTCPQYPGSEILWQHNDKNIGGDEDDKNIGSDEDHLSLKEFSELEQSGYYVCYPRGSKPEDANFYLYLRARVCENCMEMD
Method: Each one-amino acid altered form constructed, expressed, and purified in the paragraph (6-2) was evaluated using Biacore T200 (GE Healthcare Japan Corp.). An appropriate amount of CD3ε homodimer protein was immobilized onto Sensor chip CM4 (GE Healthcare Japan Corp.) by the amine coupling method. Then, the antibody having an appropriate concentration was injected thereto as an analyte and allowed to interact with the CD3ε homodimer protein on the sensor chip. Then, the sensor chip was regenerated by the injection of 10 mmol/L glycine-HCl (pH 1.5). The assay was conducted at 25° C., and HBS-EP+ (GE Healthcare Japan Corp.) was used as a running buffer. […] Each parameter was calculated using Biacore T200 Evaluation Software (GE Healthcare Japan Corp.).
Specifically, when the amount of the GLS3000-containing antibody bound was defined as X and the amount of the L chain one-amino acid altered form bound was defined as Y, a value of Z (ratio of amounts bound)=Y/X was used.

Row | ratio of amount bound vs unaltered GLS3000 | Binder
1 | 1.31 | B1
2 | 1.03 | B2
3 | 0.41 | B3
4 | 1.33 | B4
5 | 0.33 | B5
6 | 0.38 | B6
7 | 1.19 | B7
8 | 1.09 | B8
9 | 0.76 | B9
10 | 0.5 | B10
11 | 0.52 | B11
12 | 0.92 | B12
13 | 0.71 | B13
14 | 0.82 | B14
15 | 0.4 | B15
16 | 1.63 | B16
17 | 0.8 | B17

Row | ratio of amount bound vs unaltered GLS3000 | Binder
18 | 0.91 | B18
19 | 1.07 | B19
20 | 0.98 | B20
21 | 0.94 | B21
22 | 0.69 | B22
23 | 0.69 | B23
24 | 0.19 | B24
25 | 0.94 | B25
26 | 0.16 | B26
27 | 1.31 | B27
28 | 0.8 | B28
29 | 0.27 | B29
30 | 0.35 | B30
31 | 0.7 | B31
32 | 1.13 | B32
33 | 1.16 | B33
34 | 0.26 | B34
